Reference: article PMC4191421
Where “and” joins values, the source holds several entries; their conditions need not be identical. Equal values may be shown once.

How the values were obtained:
[1] = molecular target: BLM RecQ-core (core-BLM) (human) (UniProt P54132); test: smFRET (GQ unfolding); conditions: smFRET: 150 mM K+ (or 50 mM K+, 50/150 mM Na+), 5 mM Mg2+, pH 7.5, EMSA: 50 mM K+, 50 mM Tris-HCl pH 7.5, 1 mM DTT, 22 C; for binding signal (% unfolded at 25 nM): 50 mM Na+; for binding signal: 150 mM K+, saturating BLM
WRN (human) = WRN (human) (UniProt Q14191); test: smFRET (GQ unfolding); conditions: 50 mM Na+, strand 2 is RNA, smFRET: 150 mM K+ (or 50 mM K+, 50/150 mM Na+), 5 mM Mg2+, pH 7.5, EMSA: 50 mM K+, 50 mM Tris-HCl pH 7.5, 1 mM DTT, 22 C
[2] = molecular target: BLM RecQ-core (core-BLM) (human) (UniProt P54132); test: smFRET (GQ unfolding titration, Langmuir); conditions: strand 2 is RNA, smFRET: 150 mM K+ (or 50 mM K+, 50/150 mM Na+), 5 mM Mg2+, pH 7.5, EMSA: 50 mM K+, 50 mM Tris-HCl pH 7.5, 1 mM DTT, 22 C
[3] = molecular target: BLM RecQ-core (core-BLM) (human) (UniProt P54132); test: smFRET; conditions: smFRET: 150 mM K+ (or 50 mM K+, 50/150 mM Na+), 5 mM Mg2+, pH 7.5, EMSA: 50 mM K+, 50 mM Tris-HCl pH 7.5, 1 mM DTT, 22 C
[4] = molecular target: BLM RecQ-core (core-BLM) (human) (UniProt P54132); test: smFRET; conditions: strand 2 is RNA, smFRET: 150 mM K+ (or 50 mM K+, 50/150 mM Na+), 5 mM Mg2+, pH 7.5, EMSA: 50 mM K+, 50 mM Tris-HCl pH 7.5, 1 mM DTT, 22 C
[5] = nt-free, 150 mM Na+, strand 2 is RNA

Chain of BLM RecQ-core (core-BLM) (human) (P54132 642-1290): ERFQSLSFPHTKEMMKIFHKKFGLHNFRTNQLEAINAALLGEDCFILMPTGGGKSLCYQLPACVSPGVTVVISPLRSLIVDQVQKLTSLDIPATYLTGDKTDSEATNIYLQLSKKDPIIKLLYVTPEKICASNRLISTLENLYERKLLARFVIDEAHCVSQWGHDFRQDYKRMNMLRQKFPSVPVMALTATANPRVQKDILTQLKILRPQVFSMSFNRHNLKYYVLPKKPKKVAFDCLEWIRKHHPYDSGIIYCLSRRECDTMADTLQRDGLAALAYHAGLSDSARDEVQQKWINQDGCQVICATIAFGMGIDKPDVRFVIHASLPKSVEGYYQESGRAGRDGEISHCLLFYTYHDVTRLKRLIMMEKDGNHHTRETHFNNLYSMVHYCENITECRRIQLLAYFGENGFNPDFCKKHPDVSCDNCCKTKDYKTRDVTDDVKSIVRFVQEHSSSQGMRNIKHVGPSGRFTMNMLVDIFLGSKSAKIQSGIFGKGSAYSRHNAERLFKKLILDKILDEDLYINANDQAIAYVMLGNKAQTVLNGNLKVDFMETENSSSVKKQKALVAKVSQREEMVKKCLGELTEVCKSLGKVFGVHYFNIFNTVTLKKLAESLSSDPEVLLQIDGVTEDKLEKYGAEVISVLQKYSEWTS
Chain of WRN (human) (Q14191 whole entry): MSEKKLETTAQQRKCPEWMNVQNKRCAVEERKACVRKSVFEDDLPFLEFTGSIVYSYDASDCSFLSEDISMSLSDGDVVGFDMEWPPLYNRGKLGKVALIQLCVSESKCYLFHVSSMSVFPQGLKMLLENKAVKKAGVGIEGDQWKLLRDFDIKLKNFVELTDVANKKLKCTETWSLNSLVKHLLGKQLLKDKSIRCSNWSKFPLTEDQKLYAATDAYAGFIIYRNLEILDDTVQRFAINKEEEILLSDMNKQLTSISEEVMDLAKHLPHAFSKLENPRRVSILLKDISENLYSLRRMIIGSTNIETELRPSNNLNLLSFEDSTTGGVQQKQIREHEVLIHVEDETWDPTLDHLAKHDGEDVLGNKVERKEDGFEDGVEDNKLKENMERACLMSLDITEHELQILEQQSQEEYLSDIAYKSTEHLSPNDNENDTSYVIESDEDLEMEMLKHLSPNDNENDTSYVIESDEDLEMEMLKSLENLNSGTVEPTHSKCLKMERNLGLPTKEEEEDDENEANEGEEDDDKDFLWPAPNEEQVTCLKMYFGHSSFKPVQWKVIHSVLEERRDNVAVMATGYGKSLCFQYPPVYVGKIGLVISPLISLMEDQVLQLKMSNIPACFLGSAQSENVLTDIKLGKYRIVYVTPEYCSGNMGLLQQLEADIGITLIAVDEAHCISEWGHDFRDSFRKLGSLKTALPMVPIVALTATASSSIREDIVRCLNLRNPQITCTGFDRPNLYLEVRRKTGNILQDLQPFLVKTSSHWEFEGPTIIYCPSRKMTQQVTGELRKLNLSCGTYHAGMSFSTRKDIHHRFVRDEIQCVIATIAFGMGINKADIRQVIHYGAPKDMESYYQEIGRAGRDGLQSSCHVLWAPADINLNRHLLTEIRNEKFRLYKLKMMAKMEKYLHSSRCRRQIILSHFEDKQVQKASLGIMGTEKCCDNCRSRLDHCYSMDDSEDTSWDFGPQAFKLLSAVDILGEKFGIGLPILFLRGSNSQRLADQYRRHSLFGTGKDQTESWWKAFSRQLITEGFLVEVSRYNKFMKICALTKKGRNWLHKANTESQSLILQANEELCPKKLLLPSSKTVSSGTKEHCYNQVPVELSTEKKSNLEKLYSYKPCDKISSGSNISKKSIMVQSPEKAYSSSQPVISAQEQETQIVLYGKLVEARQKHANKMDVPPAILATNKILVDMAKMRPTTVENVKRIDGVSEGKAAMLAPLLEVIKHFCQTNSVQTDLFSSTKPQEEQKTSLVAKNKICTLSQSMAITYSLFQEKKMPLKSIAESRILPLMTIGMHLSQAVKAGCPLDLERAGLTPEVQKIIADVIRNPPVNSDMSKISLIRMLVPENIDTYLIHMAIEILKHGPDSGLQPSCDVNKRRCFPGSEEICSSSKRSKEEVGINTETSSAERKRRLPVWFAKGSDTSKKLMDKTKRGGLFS

Question: “TGGCGACGGCAGCGAGGCTTGGGTGGGTGGGTGGGTTTTTTTTTTTT / GCCUCGCUGCCGUCGCCA [pd-3Ly1Lp12T]” was tested. Which binding signal (% unfolded at 1 uM) ([1]; strand 2 is RNA) did it give?
Answer: 46 and 58

Question: With “TTTTTTTTTTTTGGGTTAGGGTTAGGGTTAGGGTTTGGCGACGGCAGCGAGGC / GCCTCGCTGCCGTCGCCA [pd-hGQ12T-5']” as the sequence, how does the binding signal (% unfolded at 1 uM) ([1]; ATPgS, 50 mM K+) read?
Answer: 30

Question: What about the binding signal (% unfolded at 1 uM) ([1]; nt-free, 50 mM K+) of the same sequence?
Answer: 21

Question: What does the source list for “TGGCGACGGCAGCGAGGCTAGGGTTAGGGTTAGGGTTAGGGTTTTTTTTTTTT / GCCUCGCUGCCGUCGCCA [pd-hGQ12T]”?
Answer: binding signal (% unfolded at 25 nM) ([1]; ATPgS, strand 2 is RNA): 25; binding signal (% unfolded at 25 nM) ([1]; nt-free, strand 2 is RNA): 18; binding signal (% unfolded at 300 nM) [1, 5]: 17; binding signal (% unfolded at 1000 nM) [1, 5]: 38; binding signal (% unfolded at 25 nM) (WRN (human); ATPgS): 25; binding signal (% unfolded at 25 nM) (WRN (human); nt-free): 8; K half ([2]; 1 mM ADP, 150 mM K+, alpha 32%): 55 nM; K half ([2]; 1 mM ATPgS, 150 mM K+, alpha 53%): 108 nM; K half ([2]; nt-free, 50 mM K+, alpha 55%): 28 nM; K half ([2]; nt-free, 150 mM K+, alpha 49%): 305 nM

Question: Which binding signal (% bound at 1 uM) ([3]; 1 mM ATPgS, 50 mM K+) does the source give for “TTTTTTTTTTTTTTTTGGCGACGGCAGCGAGGC / GCCTCGCTGCCGTCGCCA [pd-polyT15-5']” here?
Answer: 53

Question: What does the source list for “TGGCGACGGCAGCGAGGCTTTTTTTTTTTTTTT / GCCUCGCUGCCGUCGCCA [pd-polyT15]”?
Answer: binding signal (% bound at 1 uM) ([3]; 1 mM ADP, 150 mM K+, strand 2 is RNA): 12; binding signal (fold higher Keq in 150 vs 50 mM Na+) ([3]; nt-free, strand 2 is RNA): 4.7; binding signal (% bound at 1 uM) ([3]; strand 2 is RNA): 21; binding signal (% bound at 1 uM) [4]: 36

Question: “TGGCGACGGCAGCGAGGCTAGGGTTAGGGTTAGGGTTAGGGTTTTTTTTTTTTTTT / GCCUCGCUGCCGUCGCCA [pd-hGQ15T]” was tested. Which binding signal ([1]; ADP, strand 2 is RNA) did it give?
Answer: 22 % unfolded

Question: What about the binding signal ([1]; ATPgS, strand 2 is RNA) of the same sequence?
Answer: 57 % unfolded

Question: What about the binding signal ([1]; nt-free, strand 2 is RNA) of the same sequence?
Answer: 48 % unfolded
